Experiments:
[1] = biological target: MDM2_(D.rerio) SWIB domain (zebra fish (Danio rerio)); experiment: stopped-flow spectroscopy
[2] = biological target: MDM2_(L.camtschaticum) SWIB domain (arctic lamprey (Lethenteron camtschaticum)); experiment: fluorescence polarisation
[3] = biological target: MDM2_(M.trossulus) SWIB domain (bay mussel (Mytilus trossulus)); experiment: fluorescence polarisation

Row | Substance | Kd [1] [µM] | also measured
1 | p53TAD_(D.rerio)[14–27] (peptide) | 1.9 | –
2 | p53TAD_(D.rerio)^N26L (peptide) | 0.34 | –
3 | p53TAD_(D.rerio)^insertT[18] (peptide) | 2.3 | –
4 | p53TAD_(L.camtschaticum) (peptide) | – | Kd [2]: 250 µM
5 | p53TAD_(M.trossulus) (peptide) | – | Kd [3]: 15 µM
6 | p73TAD_(D.rerio) (peptide) | 0.12 | –

Reference: paper doi:10.1101/2023.01.26.525693
